Laboratory results from the supplement of paper PMC7877785.
± gives the uncertainty stated by the source.

Assay: self-splicing fitness, log relative to wild type (ln ratio); higher = more splicing; Tetrahymena group I intron in knt gene, E. coli kanamycin selection, DiMSum; sequences stand for … in CUCUCU…GGAGGGAAAAGUUAUCAGGCAUGCACCUGGUAGCUAGUCUUUAAACCAAUAGAUUGCAUCGGUUUAAAAGGCAAGACCGUCAAAUUGCGGGAAAGGGGUCAACAGCCGUUCAGUACCAAGUCUCAGGGGAAACUUUGAGAUGGCCUUGCAAAGGGUAUGGUAAUAAGCUGACGGACAUGGUCCUAACCACGCAGCCAAGUCCUAAGUCAACAGAUCUUCUGUUGAUAUGGAUGCAGUUCACAGACUAAAUGUCGGUCGGGGAAGAUGUAUUCUUCUCAUAAGAUAUAGUCGGACCUCUCCUUAAUGGGAGCUAGCGGAUGAAGUGAUGCAACACUGGAGCCGCUGGGAACUAAUUUGUAUGCGAAAGUAUAUUGAUUAGUUUUGGAGUACUCGUGGUCG
In short: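 Library with all eight P1ex-region intron nucleotides randomised, intron inside the knt kanamycin-resistance gene on pET-22b(+), in E. coli BL21(DE3). Cells grew overnight at 37°C or 30°C on LB agar with or without 25 μg/mL kanamycin (plus 100 μg/mL carbenicillin, 50 μM IPTG, 0.2% rhamnose), in six replicate transformations. Pooled colonies were amplicon-sequenced on Illumina HiSeq 2500. DiMSum fitness is the error-weighted combination of wild-type-normalised replicate fold changes, kanamycin versus none.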

| Sequence | self-splicing fitness (ln) (30 °C) | self-splicing fitness (ln) (37 °C) |
| --- | --- | --- |
| GGCGAGCAAUAUUACGACCU | -0.951 ± 0.19 | -0.976 ± 0.39 |
| GGCGAGCAAUAUUACGAGAC | -1.31 ± 0.49 | – |
| GGCGAGCAAUAUUACGAGCA | -1.44 ± 0.25 | -0.374 ± 0.28 |
| GGCGAGCAAUAUUACGAGGU | -3.57 ± 0.36 | -0.907 ± 0.22 |
| GGCGAGCAAUAUUACGCAGU | -1.29 ± 0.43 | -0.76 ± 0.39 |
| GGCGAGCAAUAUUACGCGGG | – | -2.89 ± 0.38 |
| GGCGAGCAAUAUUACGCUCA | -1.02 ± 0.11 | 0.00865 ± 0.12 |
| GGCGAGCAAUAUUACGCUUA | -1.63 ± 0.15 | -0.623 ± 0.15 |
| GGCGAGCAAUAUUACGCUUG | – | -2.71 ± 0.48 |
| GGCGAGCAAUAUUACGGCCA | -1.39 ± 0.21 | -1.35 ± 0.27 |
| GGCGAGCAAUAUUACGGCCG | -2.11 ± 0.16 | -0.882 ± 0.2 |
| GGCGAGCAAUAUUACGGCUU | -0.682 ± 0.2 | -0.0819 ± 0.35 |
| GGCGAGCAAUAUUACGGGGG | -3.33 ± 0.2 | -2.64 ± 0.28 |
| GGCGAGCAAUAUUACGUAUU | -2.29 ± 0.14 | -0.757 ± 0.12 |
| GGCGAGCAAUAUUACGUCGA | -2.43 ± 0.23 | -0.47 ± 0.15 |
| GGCGAGCAAUAUUACGUGGC | -3.3 ± 0.25 | -1.73 ± 0.25 |
| GGCGAGCAAUAUUACGUUCU | -1.02 ± 0.051 | -0.335 ± 0.07 |
| GGCGAGCAAUAUUACGUUGU | -3.25 ± 0.18 | -2.48 ± 0.25 |
| GGCUAGCAAUAUUACGAAGG | – | -0.668 ± 0.29 |
| GGCUAGCAAUAUUACGACCA | -1.49 ± 0.3 | -1.43 ± 0.31 |
| GGCUAGCAAUAUUACGACCG | -0.745 ± 0.14 | -0.188 ± 0.21 |
| GGCUAGCAAUAUUACGACGG | -3.75 ± 0.37 | -2.18 ± 0.46 |
| GGCUAGCAAUAUUACGAGGA | -1.17 ± 0.17 | -1.47 ± 0.14 |
| GGCUAGCAAUAUUACGAGUC | – | -1.08 ± 0.26 |
| GGCUAGCAAUAUUACGCCGC | -3.44 ± 0.41 | – |
| GGCUAGCAAUAUUACGCCGU | -1.49 ± 0.11 | -0.833 ± 0.17 |

| Sequence | self-splicing fitness (ln) (30 °C) | self-splicing fitness (ln) (37 °C) |
| --- | --- | --- |
| GGCUAGCAAUAUUACGCCUC | -1.35 ± 0.18 | -0.927 ± 0.23 |
| GGCUAGCAAUAUUACGCGCU | -2.76 ± 0.25 | -2.42 ± 0.3 |
| GGCUAGCAAUAUUACGCUAU | -1.3 ± 0.11 | 0.0903 ± 0.12 |
| GGCUAGCAAUAUUACGCUGG | -4.2 ± 0.42 | – |
| GGCUAGCAAUAUUACGCUUA | -0.872 ± 0.1 | -0.117 ± 0.11 |
| GGCUAGCAAUAUUACGCUUU | -0.428 ± 0.083 | 0.202 ± 0.099 |
| GGCUAGCAAUAUUACGGCGC | 0.164 ± 0.14 | 0.272 ± 0.16 |
| GGCUAGCAAUAUUACGGGAU | -1.89 ± 0.089 | -1.03 ± 0.11 |
| GGCUAGCAAUAUUACGGGCA | 0.122 ± 0.082 | 0.0658 ± 0.092 |
| GGCUAGCAAUAUUACGGGCC | – | -1.98 ± 0.42 |
| GGCUAGCAAUAUUACGGGGA | -2.17 ± 0.17 | -1.25 ± 0.17 |
| GGCUAGCAAUAUUACGGGGC | -3.67 ± 0.47 | -2.08 ± 0.28 |
| GGCUAGCAAUAUUACGGUAC | -1.91 ± 0.17 | -0.733 ± 0.14 |
| GGCUAGCAAUAUUACGGUCA | -0.918 ± 0.1 | -0.851 ± 0.085 |
| GGCUAGCAAUAUUACGGUCC | -4.11 ± 0.33 | -2.97 ± 0.28 |
| GGCUAGCAAUAUUACGGUGA | -0.0349 ± 0.072 | 0.281 ± 0.086 |
| GGCUAGCAAUAUUACGGUUG | -0.166 ± 0.076 | -0.197 ± 0.098 |
| GGCUAGCAAUAUUACGUAAU | -0.265 ± 0.1 | 0.283 ± 0.12 |
| GGCUAGCAAUAUUACGUACG | -0.805 ± 0.1 | 0.365 ± 0.11 |
| GGCUAGCAAUAUUACGUAGU | -3.29 ± 0.17 | -2.04 ± 0.2 |
| GGCUAGCAAUAUUACGUCUA | -0.349 ± 0.13 | -0.105 ± 0.11 |
| GGCUAGCAAUAUUACGUGCC | -2.22 ± 0.25 | – |
| GGCUAGCAAUAUUACGUUAC | -1.55 ± 0.069 | -0.888 ± 0.093 |
| GGCUAGCAAUAUUACGUUCC | -1.62 ± 0.11 | -0.39 ± 0.11 |
| GGGAAGCAAUAUUACGAAUG | – | -0.92 ± 0.34 |
| GGGAAGCAAUAUUACGAAUU | -0.943 ± 0.23 | -0.115 ± 0.21 |

| Sequence | self-splicing fitness (ln) (30 °C) | self-splicing fitness (ln) (37 °C) |
| --- | --- | --- |
| GGGAAGCAAUAUUACGACAA | -2 ± 0.2 | -1.34 ± 0.19 |
| GGGAAGCAAUAUUACGACUA | -0.9 ± 0.15 | 0.352 ± 0.17 |
| GGGAAGCAAUAUUACGACUG | -0.222 ± 0.088 | -0.457 ± 0.11 |
| GGGAAGCAAUAUUACGAGUA | – | -2.29 ± 0.36 |
| GGGAAGCAAUAUUACGAUAA | -1.61 ± 0.11 | -0.785 ± 0.15 |
| GGGAAGCAAUAUUACGCUCA | – | -0.0289 ± 0.38 |
| GGGAAGCAAUAUUACGCUGC | -2.83 ± 0.48 | – |
| GGGAAGCAAUAUUACGGAAC | -2.09 ± 0.2 | -2.13 ± 0.27 |
| GGGAAGCAAUAUUACGGAUU | -0.965 ± 0.07 | -0.737 ± 0.1 |
| GGGAAGCAAUAUUACGGCUC | -0.727 ± 0.12 | 0.0488 ± 0.17 |
| GGGAAGCAAUAUUACGGGCC | -2.03 ± 0.14 | -0.949 ± 0.13 |
| GGGAAGCAAUAUUACGUAGG | -3.64 ± 0.32 | -0.93 ± 0.11 |
| GGGAAGCAAUAUUACGUCUC | -3.97 ± 0.37 | -3 ± 0.35 |
| GGGAAGCAAUAUUACGUGCG | -1.4 ± 0.11 | -0.371 ± 0.13 |
| GGGAAGCAAUAUUACGUUAC | -2.75 ± 0.15 | -1.15 ± 0.14 |
| GGGCAGCAAUAUUACGAACG | -1.18 ± 0.12 | 0.475 ± 0.17 |
| GGGCAGCAAUAUUACGAAUG | -2.93 ± 0.17 | -2.12 ± 0.23 |
| GGGCAGCAAUAUUACGACAA | -1.53 ± 0.22 | -0.573 ± 0.18 |
| GGGCAGCAAUAUUACGAGAU | -3.14 ± 0.23 | -2.41 ± 0.32 |
| GGGCAGCAAUAUUACGAGGA | – | -2.97 ± 0.47 |
| GGGCAGCAAUAUUACGAUCA | -1.56 ± 0.13 | -0.598 ± 0.15 |
| GGGCAGCAAUAUUACGCCCG | -2.33 ± 0.23 | – |
| GGGCAGCAAUAUUACGCCUG | -1.27 ± 0.14 | 0.02 ± 0.13 |
| GGGCAGCAAUAUUACGCGAG | -0.948 ± 0.094 | -0.664 ± 0.098 |
| GGGCAGCAAUAUUACGCGUU | -0.662 ± 0.073 | -0.349 ± 0.087 |
| GGGCAGCAAUAUUACGCUGG | -3.14 ± 0.14 | -2.53 ± 0.16 |

| Sequence | self-splicing fitness (ln) (30 °C) | self-splicing fitness (ln) (37 °C) |
| --- | --- | --- |
| GGGCAGCAAUAUUACGCUUG | -0.914 ± 0.088 | 0.22 ± 0.13 |
| GGGCAGCAAUAUUACGGGAC | -2.3 ± 0.18 | -1.61 ± 0.18 |
| GGGCAGCAAUAUUACGGUGG | -3.42 ± 0.17 | -1.86 ± 0.16 |
| GGGCAGCAAUAUUACGUAUA | -1.85 ± 0.13 | -1.1 ± 0.14 |
| GGGCAGCAAUAUUACGUGCG | -0.439 ± 0.057 | -0.235 ± 0.077 |
| GGGCAGCAAUAUUACGUUAG | -1.81 ± 0.093 | -0.462 ± 0.13 |
| GGGCAGCAAUAUUACGUUAU | -1.68 ± 0.097 | -0.345 ± 0.12 |
| GGGCAGCAAUAUUACGUUCA | -0.593 ± 0.075 | -0.158 ± 0.12 |
| GGGGAGCAAUAUUACGAAAG | -3.12 ± 0.44 | – |
| GGGGAGCAAUAUUACGAAUU | -1.24 ± 0.19 | -0.992 ± 0.25 |
| GGGGAGCAAUAUUACGACUA | -0.712 ± 0.24 | -0.539 ± 0.29 |
| GGGGAGCAAUAUUACGAUCA | -1.45 ± 0.18 | -0.807 ± 0.19 |
| GGGGAGCAAUAUUACGCACU | -3.29 ± 0.36 | – |
| GGGGAGCAAUAUUACGCCUG | -2.33 ± 0.15 | -0.491 ± 0.13 |
| GGGGAGCAAUAUUACGCGAG | -1.54 ± 0.43 | -0.692 ± 0.24 |
| GGGGAGCAAUAUUACGGACG | -2.73 ± 0.32 | -1.21 ± 0.28 |
| GGGGAGCAAUAUUACGGAGC | -2.66 ± 0.33 | -1.79 ± 0.2 |
| GGGGAGCAAUAUUACGGAGG | – | -1.4 ± 0.35 |
| GGGGAGCAAUAUUACGGAUU | -3.35 ± 0.28 | -2.15 ± 0.23 |
| GGGGAGCAAUAUUACGGCUC | – | -0.173 ± 0.34 |
| GGGGAGCAAUAUUACGGUGA | -2.23 ± 0.36 | – |
| GGGGAGCAAUAUUACGGUGG | -3.04 ± 0.25 | -2.67 ± 0.24 |
| GGGGAGCAAUAUUACGGUGU | -3.87 ± 0.37 | -1.37 ± 0.22 |
